These are literature values, as cited in PMC3966486.

The term pKa denotes the negative logarithm of the acid dissociation constant.

Data set [1] has as its target His30 (UniProt position 58, LSHYIHNLSSE). The note with it: unbound (free) monomer, not in the hormone-receptor complex.
For data set [2], the target named is His27 (UniProt position 55, AVVLSHYIHNL). The note with it: unbound (free) monomer, not in the hormone-receptor complex.
For data set [3], the target named is His30 (UniProt position 58, LSAYIHNLSSE). The note with it: unbound (free) monomer, not in the hormone-receptor complex.
Another data set addresses His180 (UniProt position 208, LRRDSHKIDNY). The settings on record: unbound (free) monomer, not in the hormone-receptor complex.
In data set [4] the target is human prolactin receptor extracellular domain (hPRLr-ECD), wild type (UniProt P16471). The settings on record: pH.
human prolactin receptor extracellular domain (hPRLr-ECD), wild type, sequence (P16471 whole entry, the tested form may be a part): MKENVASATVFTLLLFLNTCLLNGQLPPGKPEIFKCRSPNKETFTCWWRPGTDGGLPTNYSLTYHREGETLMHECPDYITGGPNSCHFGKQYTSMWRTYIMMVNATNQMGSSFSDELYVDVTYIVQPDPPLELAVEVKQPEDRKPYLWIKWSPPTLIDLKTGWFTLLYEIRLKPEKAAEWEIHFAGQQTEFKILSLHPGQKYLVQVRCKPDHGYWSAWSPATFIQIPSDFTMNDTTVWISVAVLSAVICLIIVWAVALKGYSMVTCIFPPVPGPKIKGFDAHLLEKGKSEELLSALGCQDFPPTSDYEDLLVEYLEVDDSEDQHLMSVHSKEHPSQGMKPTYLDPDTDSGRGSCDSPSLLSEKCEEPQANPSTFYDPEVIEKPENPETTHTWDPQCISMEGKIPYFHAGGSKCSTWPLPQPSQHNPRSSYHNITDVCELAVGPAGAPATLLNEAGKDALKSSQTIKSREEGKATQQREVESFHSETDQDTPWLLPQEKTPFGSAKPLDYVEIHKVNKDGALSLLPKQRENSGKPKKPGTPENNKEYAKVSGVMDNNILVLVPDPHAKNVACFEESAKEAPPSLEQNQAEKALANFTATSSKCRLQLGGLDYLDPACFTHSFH
For data set [5] the target is unchanged. The settings on record: pH. The source holds these as a separate data set.
The next data set concerns the target His188 (UniProt position 212, RCKPDHGYWSA). The note with it: unbound (free) monomer, not in the hormone-receptor complex.
For data set [6], the target named is His27 (UniProt position 55, AVVLSHYIANL). The note with it: unbound (free) monomer, not in the hormone-receptor complex.
Data set [7] deals with human prolactin receptor extracellular domain (hPRLr-ECD), wild type (UniProt P16471). The settings on record: pH. This is another data set of the same source.

Turning to “Prolactin (hPRL) H180A (Homo sapiens; H180A)”, the pKa is given as 6.7 in the data set with His30 [1] and 6.8 with His27 [2].

For “Prolactin (hPRL) H27A (Homo sapiens; H27A)”, the values for the pKa in the data set with His30 [3] and with His180 were 6.5 and 6.2, respectively.

On to human prolactin H180A H180A, for which, in data set [4], the pKa, His27 of hPRL H180A is 6.8 pH units and the pKa, His30 of hPRL H180A was 6.7 pH units.

With Prolactin (hPRL) (Homo sapiens), the pKa with His30 [1] is reported as 6.3; in the data set with His27 [2] it was 6.7; with His180 it was 6.1.

For the substance human prolactin H27A H27A, in [5], the pKa, His30 of hPRL H27A is 6.5 pH units and the pKa, His180 of hPRL H27A was 6.2 pH units.

For the substance “Prolactin receptor extracellular domain (hPRLr-ECD) (Homo sapiens)”, in the data set with His188, the pKa is reported as 7.7.

As to “Prolactin (hPRL) H30A (Homo sapiens; H30A)”, the pKa is 6.9 in the data set with His27 [6] and 6.3 with His180.

human prolactin H30A H30A: in [7], the pKa, His27 of hPRL H30A is 6.9 pH units and the pKa, His180 of hPRL H30A is 6.3 pH units.
